Assay results reported in publication PMC3182218, “Obesity Risk Gene TMEM18 Encodes a Sequence-Specific DNA-Binding Protein” (PLoS ONE, 2011).

Biological target: the molecule itself
Experiment: dimer-sized band on SDS-PAGE Western blot; TMEM18 purified from insect cells, bound to DNA-cellulose, washed and eluted with 0.5 M, 1 M and 2 M salt; anti-Flag Western blot; dimer form approx. 34 kDa against monomer form approx. 17 kDa

B1: TMEM18 produced in insect cells (N-terminal Flag-tag followed by eight histidines) (natural protein)
chain: not shown
notes: TMEM18, 140 amino acids; cloned into pK509.3 vector; Flag-tag first, then eight histidine repeats, then TMEM18; detected by anti-Flag Western blot; also called histidine and Flag-tagged TMEM18; source: Sf9 or Tn5 insect cells (baculovirus), purified (nuclear extract in dodecyl maltoside, Ni-sepharose); not shown: Flag, N-terminal, kept
- binding result: binds
